For the assay, the target named is Recombinant Xenopus laevis Chromosomal Passenger Complex (INCENP, Aurora B 33-368, Survivin-B, Borealin/Dasra-A) (Xenopus laevis) (UniProt Q6GPL3). Description: partitioning into condensates.
UniProt Q6GPL3, sequence (Q6GPL3 whole entry, looked up, tested part not stated, one chain of several): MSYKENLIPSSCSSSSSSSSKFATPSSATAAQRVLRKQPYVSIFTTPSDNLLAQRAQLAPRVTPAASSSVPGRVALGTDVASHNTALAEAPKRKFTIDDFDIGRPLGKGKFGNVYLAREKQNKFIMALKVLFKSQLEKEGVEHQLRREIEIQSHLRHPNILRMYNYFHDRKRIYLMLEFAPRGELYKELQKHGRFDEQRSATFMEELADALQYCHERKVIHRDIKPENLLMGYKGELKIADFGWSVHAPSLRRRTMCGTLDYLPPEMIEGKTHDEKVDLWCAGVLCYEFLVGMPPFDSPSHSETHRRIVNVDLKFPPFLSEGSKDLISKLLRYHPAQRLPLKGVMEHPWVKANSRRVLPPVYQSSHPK

With “α/β-tubulin dimers (from UniProt Q6B856 1-445) (complex)”, the enrichment in condensates (partition coefficient) came to 5 fold.

The record behind these values is doi:10.1101/2022.01.07.475460.
